Experimental data taken from IntAct's records for PubMed 25265331.

B1: Replication restart protein DnaT (Escherichia coli (strain K12)), P0A8J2 (parent)
chain: MSSRVLTPDVVGIDALVHDHQTVLAKAEGGVVAVFANNAPAFYAVTPARLAELLALEEKLARPGSDVALDDQLYQEPQAAPVAVPMGKFAMYPDWQPDADFIRLAALWGVALREPVTTEELASFIAYWQAEGKVFHHVQWQQKLARSLQIGRASNGGLPKRDVNTVSEPDSQIPPGFRG
partner: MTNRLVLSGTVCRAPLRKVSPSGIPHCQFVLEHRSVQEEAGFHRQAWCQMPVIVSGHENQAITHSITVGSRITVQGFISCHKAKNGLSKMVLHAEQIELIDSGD

Variants of: B1
Settings: with prib_ecoli priB
MSSRVLTPDVVGIDALVHDHQTVLAKAEGGVVAVFANNAPAFYAVTPARLAELLALEEKLARPGSDVALADQLYQEPQAAPVAVPMGKFAMYPDWQPDADFIRLAALWGVALREPVTTEELASFIAYWQAEGKVFHHVQWQQKLARSLQIGRASNGGLPKRDVNTVSEPDSQIPPGFRG [D70A] was tested, and the “effect of a mutation on the interaction” value was “disrupting interaction”.
